# Measurements published in paper PMC2121028 (The Journal of Cell Biology, 1996).
# B1: alpha-COP, the 135-kD subunit of coatomer (bovine), GAL4 fusion (natural protein, UniProt Q27954 1-1224, looked up)
# chain: MLTKFETKSARVKGLSFHPKRPWILTSLHNGVIQLWDYRMCTLIDKFDEHDGPVRGIDFHKQQPLFVSGGDDYKIKVWNYKLRRCLFTLLGHLDYIRTTFFHHEYPWILSASDDQTIRVWNWQSRTCVCVLTGHNHYVMCAQFHPSEDLVVSASLDQTVRVWDISGLRKKNLSPGAVESDVRGITGVDLFGTTDAVVKHVLEGHDRGVNWAAFHPTMPLIVSGADDRQVKIWRMNESKAWEVDTCRGHYNNVSCAVFHPRQELILSNSEDKSIRVWDMSKRTGVQTFRRDHDRFWVLAAHPNLNLFAAGHDGGMIVFKLERERPAYAVHGNMLHYVKDRFLRQLDFNSSKDVAVMQLRSGSKFPVFSMSYNPAENAVLLCTRASNLENSTYDLYTIPKDADTQNPDAPEGKRSSGLTAVWVARNRFAVLDRMHSLLIKNLKNEITKKVQVPNCDEIFYAGTGNLLLRDAESITLFDVQQKRTLASVKISKVKYVIWSADMSHVALLAKHAIVICNRKLEALCNIHENIRVKSGAWDESGVFIYTTSNHIKYAVTTGDYGIIRTLDLPIYVTRVKGNNVYCLDRECRPRVLTIDPTEFKFKLALINRKYDEVLHMVRNAKLVGQSIIAYLQKKGYPEVALHFVKDEKTRFSLALECGNIEIALEAAKALDDKNCWEKLGEVALLQGNHQIVEMCYQRTKNFDKLSFLYLITGNLEKLRKMMKIAEIRKDMSGHYQNALYLGDVSERVRILKNCGQKSLAYLTAATHGLDEEAESLKETFDPEKETIPDIDPNAKLLQPPAPIMPLDTNWPLLTVSKGFFEGSIASKGKGGALAADIDIDTVGTEGWGEDAELQLDEDGFVEATEGLGDDALGKGQEEGGGWDVEEDLELPPELDIPPGAAGGAEDGFFVPPTKGTSPTQIWCNNSQLPVDHILAGSFETAMRLLHDQVGVTQFGPYKQLFLQTYARGRTTYQALPCLPSMYGYPNRNWKDAGLKNGVPAVGLKLNDLIQRLQLCYQLTTVGKFEEAVEKFRSILLSVPLLVVDNKQEIAEAQQLITICREYIVGLSMETERKKLPKETLEQQKRICEMAAYFTHSNLQPVHMILVLRTALNLFFKLKNFRTAAAFARRLLELGPKPEVAQQTRKILSACEKNPTDAYQLNYDMHNPFDICAASYRPIYRGKPVEKCPLSGACYSPEFKGQICKVTTVTEIGKDVIGLRISPLQFR
# B2: epsilon-COP, GAL4 fusion (natural protein)
# chain: not shown
# B3: beta'-COP, GAL4 fusion (natural protein, bovine, UniProt P35605 1-906, looked up)
# chain: MPLRLDIKRKLTARSDRVKSVDLHPTEPWMLASLYNGSVCVWNHETQTLVKTFEVCDLPVRAAKFVARKNWVVTGADDMQIRVFNYNTLERVHMFEAHSDYIRCIAVHPTQPFILTSSDDMLIKLWDWDKKWSCSQVFEGHTHYVMQIVINPKDNNQFASASLDRTIKVWQLGSSSPNFTLEGHEKGVNCIDYYSGGDKPYLISGADDRLVKIWDYQNKTCVQTLEGHAQNVSCASFHPELPIIITGSEDGTVRIWHSSTYRLESTLNYGMERVWCVASLRGSNNVALGYDEGSIIVKLGREEPAMSMDANGKIIWAKHSEVQQANLKAMGDAEIKDGERLPLAVKDMGSCEIYPQTIQHNPNGRFVVVCGDGEYIIYTAMALRNKSFGSAQEFAWAHDSSEYAIRESNSVVKIFKNFKEKKSFKPDFGAESIYGGFLLGVRSVNGLAFYDWENTELIRRIEIQPKHIFWSDSGELVCIATEESFFILKYLSEKVLAAQETHEGVTEDGIEDGFEVLGEIQEIVKTGLWVGDCFIYTSSVNRLNYYVGGEIVTIAHLDRTMYLLGYIPKDNRLYLGDKELNIVSYSLLVSVLEYQTAVMRRDFSMADKVLPTIPKEQRTRVAHFLEKQGFKQQALTVSTDPEHRFELALQLGELKIAYQLAVEAESEQKWKQLAELAISKCQFGLAQECLHHAQDYGGLLLLATASGNASMVNKLAEGAERDGKNNVAFMSYFLQGKLDACLELLIRTGRLPEAAFLARTYLPSQVSRVVKLWRENLSKVNQKAAESLADPTEYENLFPGLKEAFVVEEWVKETHADLWPAKQYPLVTPNEERNVMEEAKGFQPSRSAAQQELDGKPASPTPVIVTSQTANKEEKSLLELEVDLDNLEIEDIDTTDINLDEDILDD
# How the values were obtained:
# [1] = target: B2; assay: two-hybrid
# [2] = target: B1; assay: two-hybrid
generations/day in -His + 25 mM AT [1],generations/day in -His + 25 mM AT [2],Binder
2.8 generations/day,,B1
,5.2 generations/day,B2
,2.11 generations/day,B3
